{"source": "patent EP4480965A1", "about": "“TRANSFERRIN RECEPTOR-BINDING MOLECULES, CONJUGATES THEREOF AND THEIR USES TO PREVENT OR TREAT CNS DISEASES” (Vect-Horus, priority 2023, dated 2024)", "system": "murine SOD1 mRNA", "experiment": "CNS knock-down of SOD1 mRNA after single ICV administration (RT-qPCR)", "format": "in vivo, C57Bl/6 mice", "conditions": "seven days", "description": "VHH-siSOD 1m conjugates were assessed for their potential to mediate murine SOD1 mRNA knock-down in the brain and spinal cord following intracerebroventicular (ICV) administration in wild-type C57Bl/6 mice. Wild-type C57Bl/6 mice (4 per group) were injected a single ICV dose (right lateral ventricle, 5-10 µL at 0.75 µL/min) of 100 µg (siRNA molar equivalent) of PBS vehicle (control), unconjugated siSOD1m-5'VP or the indicated VHH-siSOD1m-5'VP conjugates. Seven days after injection, tissue samples including total brain (right hemisphere), brain regions (from the left hemisphere), spinal cord and the liver were withdrawn, snap-frozen in 10 vol. ofNucleoProtect RNA stabilization reagent (Macherey-Nagel) and stored at -20°C. Frozen tissue samples were homogenized in QUIAzol lysis reagent using a Precellys Evolution tissue homogenizer equipped with a Cryolys Evolution cooling system (Bertin Instruments). Total RNA was extracted from tissue homogenates using the rNeasy 96 QIAcube HT Kit (QIAGEN) in a QIAcube HT system. RNA samples were analyzed and dosed using a Fragment Analyzer RNA kit in a Fragment Analyzer system (Agilent). Relative RNA expression levels were quantified by RT-qPCR using the TaqMan™ Fast Universal PCR Master Mix (2X) no AmpErase™ UNG kit (Applied Biosystems) and commercially available TaqMan™ probes for murine SOD1 and RpL13 genes (Applied Biosystems). Expression data were analyzed using the ΔΔCq method normalized to the expression of the reference RpL13 gene, based on raw quantification cycle (Cq) values (Bustin et al.). The results are expressed as means ± standard error of the mean (SEM) and are presented as mRNA levels relative to the control animals injected with PBS.\nBiodistribution of VHH-siRNA conjugates and CNS knock-down of the target SOD1 mRNAVHH-siSODlm conjugates were evaluated using in situ hybridization methods (ISH) on brain and spinal cord samples following single ICV administration in wild-type mice. […]", "data": [{"molecule": "C5-siSOD1m-5'VP: TfR-binding VHH-siRNA conjugate wherein VHH is C5 (conjugate) VHH: EVQLVESGGGVVQPGGSLKLSCVASGTDFSINFIRWYRQAPGKQREFVAGFTATGNTNYADSMKGRFTISRDNTKNAVYLQIDSLKPEDTAVYYCYMLDKWGQGTQVTVSSAAAEQKLISEEDLNGAAHHHHHHGS", "values": [{"measurement": "SOD1 mRNA knock-down (KD) in brain and spinal cord", "setting": "single ICV dose 100 µg (siRNA molar equivalent)", "result": "80-90%"}, {"measurement": "SOD1 mRNA KD in brain regions of the left hemisphere", "setting": "single ICV dose 100 µg", "result": "60-90%"}, {"measurement": "downregulation of SOD1 mRNA in all regions tested of the brain ipsilateral (right) hemisphere", "setting": "single ICV dose 100 µg", "result": "70-90%"}]}]}
